The text below walks through data of patent US11186651B2, “Monoclonal antibody for the detection of the antiretroviral drug emtricitabine (FTC, 2′,3′-dideoxy-5-fluoro-3′-thiacytidine)” (THE UNITED STATES OF AMERICA, AS REPRESENTED BY THE …, priority 2018, dated 2021).

For data set [1] the following is noted: cited from earlier work.
Data set [2] deals with carrier proteins (LPH, BSA). Kind of data set: FTC screening assay: EIA on plates coated with carrier proteins. Type of data set: binding. The following applies: plates coated at 5 ug/ml. As for the experimental part:
(§1) An assay was developed to screen the Mabs for reactivity to the FTC conjugates. Microtiter plates were coated with the following reagents: FTC-peptide-dextran, FTC-peptide, FTC-peptide-LPH, FTC-peptide-BSA, FTC heptanoic acid, peptide only, peptide-LPH, peptide-BSA, BSA, LPH, and normal mouse serum (NMS). All compounds were diluted into sodium bicarbonate buffer, pH 9.6, to a concentration of 5 ug/ml; NMS was diluted 1:15. One hundred microliters of each solution was added to a column of the microtiter plate such that each row of the plate allowed the testing of a single clonal supernatant against all of the compounds in a single run. Plates were incubated at 4° C. overnight and then washed 3× with phosphate-buffered saline (PBS) containing 0.05% Tween 20 (PBS-T). Plates were blocked with PBS containing 0.5% nonfat dry milk for 1 hour at 37° C., washed 3×, and dried at 37° C. for 30 minutes. […]
(§2) Clonal supernatants (100 ul) were added to the appropriate wells and incubated at 37° C. for 1 hr. […] Absorbance was measured at 450 nm with a 630 nm reference.
(§3) Persistently reactive clones were further tested using FTC-peptide coated plates. […] Antibodies that yielded a reduction in absorbance versus the sample containing no FTC were selected for optimization in a FTC detection assay.

Data set [3] can be described thus: Cross-reactivity test of monoclonal antibody 5D2: FTC. Type of data set: binding. As to the method:
(§4) The monoclonal antibody 5D2 was tested for cross-reactivity. 5D2 was determined to be specific for FTC, and to not bind to the following compounds: […]

The nature of data set [4]: FTC screening assay: EIA on FTC-peptide coated plates with competition by free FTC. Type of data set: binding. The following applies: supernatant incubated with free FTC. As to the method: as §1, §2, §3
Data set [5] in a line: Cross-reactivity test of monoclonal antibody 5D2: related compounds. The class given is binding. Particulars: Lamivudine (3TC), FTC-Triphosphate, FTC-Diphosphate, Cytidine, Deoxycytidine, Deoxyuridine, Guanosine, Deoxyguanosine, Deoxyadenosine, Adenosine, Thymidine, Uridine, 5-Methyluridine. As for the experimental part: as §4
A short description of data set [6]: Competitive indirect EIA, reactivity of 5D2 to naturally occurring structural analogs. Type of data set: binding. Particulars: cytidine, cysotine, deoxycytidine, adenine, adenosine, deoxyadenosine, guanine, guanosine, deoxyguanosine, thymine, 5-methyluridine, thymidine, uracil, uridine, deoxyuridine; 12 to 1,000 ug/ml. The text has this:
Because FTC is an analog of cytidine, a competitive indirect EIA was used to evaluate the reactivity of 5D2 to naturally occurring structural analogs consisting of nitrogenous nucleic acid bases, ribonucleosides, and deoxyribonucleosides, including cytidine, cysotine, deoxycytidine, adenine, adenosine, deoxyadenosine, guanine, guanosine, deoxyguanosine, thymine, 5-methyluridine, thymidine, uracil, uridine, and deoxyuridine. For the competitive assay, the concentrations of these analogs ranged from 12 to 1,000 ug/ml which is similar to the range of FTC found in urine. Reactivity was not detected to all of these naturally occurring analogs using this EIA.

Take `Nc1nc(=O)n([C@@H]2CS[C@H](CO)O2)cc1F` [FTC]: in data set [1] (serum or plasma), the “concentration found in serum or plasma” value was 1 to 300 ng/mL. Besides, in data set [1] (urine), the “concentration excreted unchanged in urine” value is 1000 to 500000 ng/mL.

B1: 5D2: mouse IgG2b kappa monoclonal antibody that specifically binds FTC; heavy chain SEQ ID NO: 1, light chain SEQ ID NO: 2 (antibody, listed as Mus musculus)
heavy: QVQLQQPGAELVKPGASVKVSCKASGYTFTSYWMHWVKQRPGQGLEWIGRIHLSDSDTNYNQNFKDKATLTVDKSSRTAHMHLSSLTSADSAVYYCAMGGTFQSNYDTYWGQGTLVTVSAAKTTPPSVYPLAPGCGDTTGSSVTLGCLVKGYFPESVTVTWNSGSLSSSVHTFPALLQSGLYTMSSSVTVPSSTWPSQTVTCSVAHPASSTTVDKKLEPSGPISTINPCPPCKECHKCPAPNLEGGPSVFIFPPNIKDVLMISLTPKVTCVVVDVSEDDPDVRISWFVNNVEVHTAQTQTHREDYNSTIRVVSALPIQHQDWMSGKEFKCKVNNKDLPSPIERTISKIKGLVRAPQVYILPPPAEQLSRKDVSLTCLVVGFNPGDISVEWTSNGHTEENYKDTAPVLDSDGSYFIYSKLDIKTSKWEKTDSFSCNVRHEGLKNYYLKKTISRSPGK
light: DIQMTQSPASLSASVGETVTITCRASGNIHNYLAWYQQKQGKSPQLLVYNAKTLTDGVPSRFSGSGSGTQYSLKINSLQPEDFGNYYCQHFLYTPYTFGGGTKLEMRRADAAPTVSIFPPSSEQLTSGGASVVCFLNNFYPKDINVKWKIDGSERQNGVLNSWTDQDSKDSTYSMSSTLTLTKDEYERHNSYTCEATHKTSTSPIVKSFNRNEC
With B1, the “reactivity with the carrier proteins” value in data set [2] is on record as “did not react”. Further, the “specificity for FTC” value in data set [3] is given as “specific”. Moreover, the “reactivity with FTC (reduction in absorbance versus sample containing no FTC)” value in data set [4] is recorded as “competitively reactive”. Also, in data set [5], the “binding to related compounds (cross-reactivity)” value is given as “not bind”. For the same molecule, the “reactivity to naturally occurring analogs” value in data set [6] was “not detected”.
